Broadly, the EC50 is the concentration that produces a half-maximal response. Higher therefore signals a less potent agent.

EC50 data for 1 substance are collected here from patent US20180037651A1.

In this experiment the target is GPRC5D (MM.1R cells) (UniProt Q9NZD1). Description: FACS cell binding; MM.1R cells.

As for Fab6300, the EC50 worked out at 122 nM.
